Assay results reported in the supplement of paper PMC10065799, “High-throughput profiling of sequence recognition by tyrosine kinases and SH2 domains using bacterial peptide display” (eLife, 2023).

What was measured:
AncSZ = assay: phosphorylation enrichment, bacterial display (enrichment ratio); higher = better substrate or ligand; peptides without Tyr show the background
EPHB1 = EPHB1 (UniProt P54762); assay: as above
EPHB2 = EPHB2 (UniProt P29323); assay: as above
FGFR1 = FGFR1 (UniProt P11362); assay: as above
FGFR3 = FGFR3 (UniProt P22607); assay: as above
Fer (mouse) = assay: as above
Fes = Fes (UniProt P07332); assay: as above
Fyn = Fyn (UniProt P06241); assay: as above
Hck = Hck (UniProt P08631); assay: as above
Jak2 = Jak2 (UniProt O60674); assay: as above
MERTK = MERTK (UniProt Q12866); assay: as above
c-Abl (mouse) = assay: as above
c-Src = assay: as above
Grb2 SH2 = Grb2 SH2 (UniProt P62993); assay: SH2 binding enrichment of the phosphorylated peptide, bacterial display (enrichment ratio); higher = better substrate or ligand; peptides without Tyr show the background
SHP2-C SH2 = assay: as above
c-Src SH2 = assay: as above
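Wherever SH2 binding enrichment of the phosphorylated peptide, bacterial display is given: peptide library displayed on the E. coli surface as eCPX fusions, selected cells deep-sequenced, score is each peptide's frequency after selection divided by its frequency in the input.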
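Wherever phosphorylation enrichment, bacterial display is given: 11-residue human phosphosite peptides and single-mutation variants displayed on the E. coli surface, counted by deep sequencing, each peptide's frequency after selection divided by its frequency in the unselected input library; frequency after pTyr selection over input frequency; kinase dosed for 20-30% of maximal phosphorylation in three min.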

Chain of Grb2 SH2 (P62993 whole entry, looked up): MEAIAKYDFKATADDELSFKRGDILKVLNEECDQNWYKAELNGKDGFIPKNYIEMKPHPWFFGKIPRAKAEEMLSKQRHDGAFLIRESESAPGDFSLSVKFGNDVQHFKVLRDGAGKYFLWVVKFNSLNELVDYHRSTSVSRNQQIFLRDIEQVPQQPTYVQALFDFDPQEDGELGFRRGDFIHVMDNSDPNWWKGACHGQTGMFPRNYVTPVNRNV
Chain of FGFR3 (P22607 whole entry, looked up): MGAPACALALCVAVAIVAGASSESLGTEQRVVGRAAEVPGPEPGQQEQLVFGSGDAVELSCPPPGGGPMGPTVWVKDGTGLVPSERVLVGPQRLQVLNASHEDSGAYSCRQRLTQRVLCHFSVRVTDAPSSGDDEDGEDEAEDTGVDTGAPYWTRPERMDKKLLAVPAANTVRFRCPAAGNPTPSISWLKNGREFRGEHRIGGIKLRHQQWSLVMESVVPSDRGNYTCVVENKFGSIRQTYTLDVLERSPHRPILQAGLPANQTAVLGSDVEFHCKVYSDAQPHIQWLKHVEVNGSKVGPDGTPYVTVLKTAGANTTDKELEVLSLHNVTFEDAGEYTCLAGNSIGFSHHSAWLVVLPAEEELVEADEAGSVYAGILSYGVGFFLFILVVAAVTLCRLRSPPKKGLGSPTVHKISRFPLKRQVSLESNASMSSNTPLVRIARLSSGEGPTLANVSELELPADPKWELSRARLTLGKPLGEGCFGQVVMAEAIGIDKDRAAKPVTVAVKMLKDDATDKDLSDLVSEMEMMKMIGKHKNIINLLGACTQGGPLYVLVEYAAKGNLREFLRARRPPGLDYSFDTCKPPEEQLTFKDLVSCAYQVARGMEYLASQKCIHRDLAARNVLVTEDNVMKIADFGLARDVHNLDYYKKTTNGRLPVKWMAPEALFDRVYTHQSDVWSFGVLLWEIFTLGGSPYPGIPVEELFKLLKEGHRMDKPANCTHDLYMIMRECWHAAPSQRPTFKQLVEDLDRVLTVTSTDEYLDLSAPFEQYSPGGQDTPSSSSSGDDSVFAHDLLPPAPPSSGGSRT
Chain of Fes (P07332 whole entry, looked up): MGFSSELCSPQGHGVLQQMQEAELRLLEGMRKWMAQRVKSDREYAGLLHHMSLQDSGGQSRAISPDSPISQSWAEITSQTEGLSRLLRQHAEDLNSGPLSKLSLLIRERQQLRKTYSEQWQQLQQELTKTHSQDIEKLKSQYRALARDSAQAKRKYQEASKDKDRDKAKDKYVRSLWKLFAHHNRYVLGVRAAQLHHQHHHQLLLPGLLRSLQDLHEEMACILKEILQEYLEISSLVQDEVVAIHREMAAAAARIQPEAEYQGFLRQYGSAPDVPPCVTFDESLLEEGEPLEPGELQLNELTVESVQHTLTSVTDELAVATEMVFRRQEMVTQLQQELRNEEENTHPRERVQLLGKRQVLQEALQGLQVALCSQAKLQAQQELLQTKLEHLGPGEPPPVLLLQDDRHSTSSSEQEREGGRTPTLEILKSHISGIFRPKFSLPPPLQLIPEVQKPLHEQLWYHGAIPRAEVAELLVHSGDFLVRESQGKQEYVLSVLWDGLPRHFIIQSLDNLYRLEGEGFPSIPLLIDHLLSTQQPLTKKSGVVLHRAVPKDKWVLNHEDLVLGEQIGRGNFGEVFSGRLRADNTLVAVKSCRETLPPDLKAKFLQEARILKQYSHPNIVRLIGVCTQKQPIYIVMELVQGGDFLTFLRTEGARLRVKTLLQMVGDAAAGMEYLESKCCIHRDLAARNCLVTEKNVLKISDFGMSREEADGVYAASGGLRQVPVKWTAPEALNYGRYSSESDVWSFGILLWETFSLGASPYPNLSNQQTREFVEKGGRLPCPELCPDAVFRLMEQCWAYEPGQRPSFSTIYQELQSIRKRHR
Chain of EPHB1 (P54762 whole entry, looked up): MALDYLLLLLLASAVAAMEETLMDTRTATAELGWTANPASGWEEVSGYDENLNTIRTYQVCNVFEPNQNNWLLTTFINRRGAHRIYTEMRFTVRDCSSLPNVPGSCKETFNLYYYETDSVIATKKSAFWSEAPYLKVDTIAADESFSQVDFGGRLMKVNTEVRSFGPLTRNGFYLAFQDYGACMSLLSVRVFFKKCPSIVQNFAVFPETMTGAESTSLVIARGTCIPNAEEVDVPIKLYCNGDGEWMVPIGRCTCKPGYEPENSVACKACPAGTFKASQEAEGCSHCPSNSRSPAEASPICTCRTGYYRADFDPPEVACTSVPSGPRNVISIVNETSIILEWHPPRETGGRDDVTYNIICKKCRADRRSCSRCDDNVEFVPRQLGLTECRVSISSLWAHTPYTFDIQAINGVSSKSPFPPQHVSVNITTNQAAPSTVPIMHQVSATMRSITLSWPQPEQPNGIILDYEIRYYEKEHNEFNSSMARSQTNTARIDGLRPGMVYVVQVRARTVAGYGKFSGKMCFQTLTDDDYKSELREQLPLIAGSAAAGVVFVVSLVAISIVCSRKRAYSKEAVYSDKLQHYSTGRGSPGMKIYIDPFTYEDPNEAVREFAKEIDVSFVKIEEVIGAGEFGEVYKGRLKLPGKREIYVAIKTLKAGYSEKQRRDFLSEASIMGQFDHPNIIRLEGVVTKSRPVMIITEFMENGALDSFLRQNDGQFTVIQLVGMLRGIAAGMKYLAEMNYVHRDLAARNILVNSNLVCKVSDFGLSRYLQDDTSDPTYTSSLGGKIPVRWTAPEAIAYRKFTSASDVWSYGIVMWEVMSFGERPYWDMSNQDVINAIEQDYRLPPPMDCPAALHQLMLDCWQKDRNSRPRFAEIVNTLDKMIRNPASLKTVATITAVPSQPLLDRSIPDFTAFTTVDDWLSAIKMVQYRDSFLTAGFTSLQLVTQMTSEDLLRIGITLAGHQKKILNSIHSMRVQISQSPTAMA
Chain of Jak2 (O60674 whole entry, looked up): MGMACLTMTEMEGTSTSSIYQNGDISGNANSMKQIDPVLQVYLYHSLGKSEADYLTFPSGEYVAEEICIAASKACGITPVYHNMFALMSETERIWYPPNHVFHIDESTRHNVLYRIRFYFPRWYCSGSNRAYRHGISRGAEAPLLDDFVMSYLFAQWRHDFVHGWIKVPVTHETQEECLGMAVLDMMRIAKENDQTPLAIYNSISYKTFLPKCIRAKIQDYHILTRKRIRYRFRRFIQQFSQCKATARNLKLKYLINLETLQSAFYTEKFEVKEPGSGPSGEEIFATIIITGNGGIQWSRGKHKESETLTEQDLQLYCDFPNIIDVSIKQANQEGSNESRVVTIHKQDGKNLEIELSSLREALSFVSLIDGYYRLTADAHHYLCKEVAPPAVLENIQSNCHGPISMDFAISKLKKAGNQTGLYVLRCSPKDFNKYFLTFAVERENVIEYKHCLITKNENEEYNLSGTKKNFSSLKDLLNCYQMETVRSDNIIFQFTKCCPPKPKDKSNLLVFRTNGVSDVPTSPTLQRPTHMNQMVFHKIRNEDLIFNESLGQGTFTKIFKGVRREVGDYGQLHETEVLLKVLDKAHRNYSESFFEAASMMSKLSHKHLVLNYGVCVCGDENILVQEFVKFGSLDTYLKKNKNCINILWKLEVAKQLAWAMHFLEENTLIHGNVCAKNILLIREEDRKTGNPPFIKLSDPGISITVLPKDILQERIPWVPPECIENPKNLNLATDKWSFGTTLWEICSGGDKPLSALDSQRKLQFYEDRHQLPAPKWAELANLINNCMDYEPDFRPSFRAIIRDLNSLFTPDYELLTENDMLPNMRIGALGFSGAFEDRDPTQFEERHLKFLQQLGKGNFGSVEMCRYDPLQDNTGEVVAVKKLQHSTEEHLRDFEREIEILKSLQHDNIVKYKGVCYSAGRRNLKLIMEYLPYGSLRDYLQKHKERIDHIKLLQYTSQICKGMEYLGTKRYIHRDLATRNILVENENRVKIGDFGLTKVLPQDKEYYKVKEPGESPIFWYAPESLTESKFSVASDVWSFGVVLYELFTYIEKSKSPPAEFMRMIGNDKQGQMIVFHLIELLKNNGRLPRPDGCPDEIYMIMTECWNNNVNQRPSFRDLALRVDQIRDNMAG
Chain of Fyn (P06241 whole entry, looked up): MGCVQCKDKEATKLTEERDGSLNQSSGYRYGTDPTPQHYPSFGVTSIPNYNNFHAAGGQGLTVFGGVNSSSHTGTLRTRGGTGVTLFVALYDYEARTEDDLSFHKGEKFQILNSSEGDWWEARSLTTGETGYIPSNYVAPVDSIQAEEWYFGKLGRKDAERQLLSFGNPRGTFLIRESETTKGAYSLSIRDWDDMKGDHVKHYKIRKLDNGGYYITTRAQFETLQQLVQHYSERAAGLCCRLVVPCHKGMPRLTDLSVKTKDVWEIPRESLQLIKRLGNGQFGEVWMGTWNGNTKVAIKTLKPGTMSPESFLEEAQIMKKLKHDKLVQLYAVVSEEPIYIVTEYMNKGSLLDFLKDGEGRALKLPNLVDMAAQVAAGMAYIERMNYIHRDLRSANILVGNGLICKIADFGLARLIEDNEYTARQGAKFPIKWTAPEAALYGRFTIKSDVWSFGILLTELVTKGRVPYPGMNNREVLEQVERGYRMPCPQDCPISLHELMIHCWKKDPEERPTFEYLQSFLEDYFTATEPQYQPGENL
Chain of Hck (P08631 whole entry, looked up): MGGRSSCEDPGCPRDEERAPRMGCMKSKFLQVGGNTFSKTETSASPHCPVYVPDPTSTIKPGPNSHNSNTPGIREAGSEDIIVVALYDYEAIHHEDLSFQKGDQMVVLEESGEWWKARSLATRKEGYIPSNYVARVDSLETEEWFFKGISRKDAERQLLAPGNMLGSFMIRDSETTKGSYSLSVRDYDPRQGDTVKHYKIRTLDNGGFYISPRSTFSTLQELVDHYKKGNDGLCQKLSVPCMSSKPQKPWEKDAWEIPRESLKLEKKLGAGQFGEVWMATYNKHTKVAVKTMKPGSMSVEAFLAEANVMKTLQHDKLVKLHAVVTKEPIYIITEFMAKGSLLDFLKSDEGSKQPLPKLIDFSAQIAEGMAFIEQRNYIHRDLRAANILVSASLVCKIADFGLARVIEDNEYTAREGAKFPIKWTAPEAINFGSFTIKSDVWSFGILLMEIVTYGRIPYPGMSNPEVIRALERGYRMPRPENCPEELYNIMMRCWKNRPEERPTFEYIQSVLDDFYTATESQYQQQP

Sequence | phosphorylation enrichment (AncSZ) | phosphorylation enrichment (EPHB1) | phosphorylation enrichment (EPHB2) | phosphorylation enrichment (FGFR1) | phosphorylation enrichment (FGFR3) | phosphorylation enrichment (Fer (mouse)) | phosphorylation enrichment (Fes) | phosphorylation enrichment (Fyn) | phosphorylation enrichment (Hck) | phosphorylation enrichment (Jak2) | phosphorylation enrichment (MERTK) | phosphorylation enrichment (c-Abl (mouse)) | phosphorylation enrichment (c-Src) | SH2 binding enrichment (Grb2 SH2) | SH2 binding enrichment (SHP2-C SH2) | SH2 binding enrichment (c-Src SH2)
FSQETYFRVSN [ABCD1_Y180_Q178E_YF] | 1 | 1.08 | 0.706 | 1.64 | 1.23 | 0.45 | 1.1 | 0.592 | 0.868 | 3 | 0.74 | 0.661 | 1.51 | 0.481 | 0.544 | 0.466
FSTSPYLLEAA [BRIP1_Y921_YF] | 0.782 | 0.488 | 0.494 | 0.408 | 0.667 | 0.475 | 0.962 | 3.49 | 0.557 | 0.724 | 0.437 | 0.458 | 1.57 | 0.954 | 1.17 | 0.577
FTAVGYHKHIT [NOMO1_Y1137] | 0.649 | 0.382 | 0.414 | 0.485 | 0.614 | 0.48 | 0.685 | 0.432 | 0.482 | 0.524 | 0.33 | 0.569 | 0.312 | 1.02 | 1.62 | 0.849
FVHDNYVIRRT [CPS1_Y1450] | 0.772 | 0.376 | 0.499 | 0.4 | 0.467 | 0.435 | 0.739 | 0.446 | 0.489 | 0.714 | 0.391 | 0.418 | 0.536 | 0.655 | 0.517 | 0.416
FVTSMYNEILI [TRPV1_Y310_M315I] | 1.16 | 0.684 | 0.714 | 0.733 | 0.903 | 6.66 | 1.32 | 0.682 | 1.14 | 1.01 | 1.17 | 0.686 | 0.621 | 0.929 | 1.09 | 4.5
GAALAYGLDKS [HSPA9_Y230_A225G] | 0.529 | 0.337 | 0.515 | 0.389 | 0.474 | 0.411 | 0.637 | 0.483 | 0.402 | 0.493 | 0.306 | 0.487 | 0.415 | 0.786 | 0.696 | 0.488
GDFLSYREFHL [ERBIN_Y1107_S1112L_YF] | 0.915 | 0.599 | 0.527 | 0.501 | 0.792 | 0.737 | 0.956 | 0.467 | 0.653 | 0.824 | 0.423 | 0.805 | 0.543 | 0.786 | 0.845 | 0.556
GDKKAYVRLAP [RPL23A_Y137_E133D] | 0.603 | 0.523 | 0.435 | 0.535 | 0.497 | 0.411 | 0.58 | 0.43 | 0.482 | 0.732 | 0.638 | 0.519 | 0.449 | 0.831 | 0.757 | 0.54
GDYLSYREFHS [ERBIN_Y1107] | 2.1 | 16.8 | 23.1 | 4.66 | 3.56 | 0.414 | 0.903 | 2.8 | 2.42 | 1.54 | 0.489 | 19 | 2.48 | 0.972 | 0.539 | 0.407
GDYYRYLAEVA [YWHAG_Y133] | 2.37 | 3.59 | 3.79 | 11.5 | 9.01 | 0.476 | 1.01 | 1.39 | 1.31 | 5.81 | 2.63 | 1.09 | 1.93 | 1.02 | 0.905 | 0.569
GGCQEYTGAPF [NAXD_Y85_YF] | 1.17 | 0.541 | 0.618 | 0.526 | 0.8 | 0.587 | 1.14 | 0.464 | 0.506 | 0.817 | 0.456 | 0.636 | 0.528 | 0.817 | 0.576 | 0.508
GGDAVYTNGAI [RFX2_Y82] | 0.654 | 0.425 | 0.486 | 0.484 | 0.532 | 0.5 | 0.638 | 1.3 | 1.34 | 0.494 | 0.359 | 0.443 | 1.09 | 0.995 | 0.594 | 0.491
GGGFGYQKTKK [DDX18_Y643] | 0.328 | 0.252 | 0.318 | 0.371 | 0.422 | 0.343 | 0.52 | 0.315 | 0.379 | 0.814 | 0.308 | 0.556 | 0.3 | 1.05 | 0.808 | 0.712
GGQDVYGDFGG [Probound] | 0.748 | 0.718 | 0.883 | 0.527 | 0.573 | 0.498 | 0.837 | 8.36 | 5.41 | 0.905 | 0.562 | 0.939 | 5.08 | 0.803 | 0.79 | 0.509
GGSSPYSRRLA [CDK13_Y351_P356A] | 0.626 | 0.363 | 0.326 | 0.356 | 0.395 | 0.344 | 0.565 | 0.426 | 0.425 | 0.512 | 0.443 | 0.567 | 0.468 | 0.875 | 1.11 | 0.617
GGTPLYMDRQG [AGXT_Y194] | 0.606 | 0.465 | 0.501 | 0.401 | 0.47 | 0.431 | 0.614 | 0.516 | 1.26 | 0.513 | 0.409 | 0.499 | 0.505 | 0.76 | 0.685 | 0.448
GGTTMYPGIAD [ACTC1_Y308] | 0.854 | 0.424 | 0.419 | 0.451 | 0.576 | 0.408 | 0.722 | 0.493 | 0.437 | 0.766 | 0.418 | 0.561 | 0.484 | 0.871 | 0.783 | 0.393

Sequence | phosphorylation enrichment (AncSZ) | phosphorylation enrichment (EPHB1) | phosphorylation enrichment (EPHB2) | phosphorylation enrichment (FGFR1) | phosphorylation enrichment (FGFR3) | phosphorylation enrichment (Fer (mouse)) | phosphorylation enrichment (Fes) | phosphorylation enrichment (Fyn) | phosphorylation enrichment (Hck) | phosphorylation enrichment (Jak2) | phosphorylation enrichment (MERTK) | phosphorylation enrichment (c-Abl (mouse)) | phosphorylation enrichment (c-Src) | SH2 binding enrichment (Grb2 SH2) | SH2 binding enrichment (SHP2-C SH2) | SH2 binding enrichment (c-Src SH2)
GHGRFYMKEAI [PGM1_Y66_D62H] | 0.684 | 0.342 | 0.418 | 0.384 | 0.59 | 0.405 | 0.754 | 0.407 | 0.404 | 0.662 | 0.305 | 0.536 | 0.36 | 1.32 | 1.21 | 1.1
GHMYAYDWISI [BEST1_Y227_L224M] | 2.18 | 3.06 | 2.54 | 8.74 | 6.08 | 14.7 | 4.88 | 1.89 | 2.87 | 0.798 | 7.82 | 0.739 | 1.82 | 1.6 | 1.82 | 2.41
GHPYAYDWISI [BEST1_Y227_L224P] | 1.47 | 1.65 | 1.07 | 10.1 | 6.75 | 17.5 | 2.26 | 0.929 | 1.62 | 0.794 | 8.66 | 0.661 | 1.55 | 1.1 | 1.07 | 4.11
GIVEDYRPPFF [ACVRL1_Y421_YF] | 0.825 | 0.497 | 0.498 | 0.468 | 0.667 | 0.443 | 0.899 | 0.464 | 0.413 | 0.814 | 0.417 | 0.701 | 0.42 | 0.818 | 0.616 | 0.521
GIVEDYRPPVY [ACVRL1_Y421_F425V] | 0.817 | 0.524 | 0.547 | 0.458 | 0.53 | 0.479 | 0.953 | 0.406 | 0.505 | 0.77 | 0.403 | 0.539 | 0.437 | 0.825 | 0.524 | 0.47
GIVKAYYVRAR [AIPL1_Y267] | 1.03 | 0.398 | 0.47 | 0.461 | 0.548 | 0.407 | 0.771 | 0.394 | 0.396 | 0.706 | 0.465 | 0.558 | 0.415 | 0.858 | 0.502 | 0.464
GKFFQYDTWKQ [IGF2_Y116] | 0.766 | 0.498 | 0.564 | 0.407 | 0.514 | 0.468 | 0.852 | 0.43 | 0.826 | 0.601 | 0.485 | 0.582 | 0.567 | 0.906 | 0.755 | 0.742
GKFFQYDTWNQ [IGF2_Y116_K120N] | 1.06 | 0.545 | 0.7 | 0.643 | 0.639 | 0.533 | 1.07 | 0.51 | 0.741 | 0.933 | 0.588 | 0.78 | 0.872 | 0.746 | 0.718 | 0.761
GKTQQYDCKWF [BCR_Y751_YF] | 0.848 | 0.596 | 0.563 | 0.472 | 0.63 | 0.463 | 1.07 | 0.432 | 0.425 | 0.927 | 0.451 | 0.748 | 0.43 | 0.826 | 0.624 | 0.466
GLRFGYGVLGG [KRTAP20-2_Y15_YF] | 0.742 | 0.413 | 0.488 | 0.358 | 0.574 | 0.387 | 0.782 | 0.548 | 0.376 | 0.562 | 0.311 | 0.519 | 0.434 | 0.674 | 0.893 | 0.493
GNHISYFQSDG [CACNA1C_Y1757_V1755I_YF] | 0.742 | 0.552 | 0.44 | 0.483 | 0.496 | 0.39 | 0.918 | 0.418 | 0.392 | 0.566 | 0.376 | 0.511 | 0.395 | 0.927 | 0.806 | 0.401
GNKENYGLPQP [BUB1_Y538] | 0.634 | 0.489 | 0.533 | 0.372 | 0.609 | 0.353 | 0.69 | 0.321 | 0.342 | 0.532 | 0.341 | 1.26 | 0.392 | 0.575 | 0.677 | 0.375
GNLLIYTELGK [HGD_Y166_F169L] | 1.46 | 3.98 | 2.57 | 1.29 | 1.19 | 0.986 | 1.43 | 5.68 | 5.3 | 1.21 | 4.86 | 2.29 | 4.74 | 0.756 | 0.478 | 0.381
GPKFGYDEIDN [ACOX1_Y232] | 0.993 | 0.44 | 0.688 | 0.42 | 0.527 | 0.344 | 0.874 | 0.406 | 0.359 | 0.765 | 0.381 | 0.531 | 0.453 | 0.845 | 0.658 | 16.7
GQKVAYGGTGD [ALDH3A1_Y305] | 0.582 | 0.268 | 0.342 | 0.354 | 0.416 | 0.384 | 0.558 | 0.349 | 0.387 | 0.417 | 0.412 | 0.569 | 0.371 | 0.756 | 0.608 | 0.48
GQSKGYRPKLF [SIPA1L3_Y1376_YF] | 0.433 | 0.319 | 0.324 | 0.364 | 0.419 | 0.342 | 0.837 | 0.363 | 0.395 | 0.37 | 0.389 | 0.448 | 0.412 | 0.742 | 0.548 | 0.299
